Test results as given in the supplement of paper PMC7877785.
± gives the uncertainty stated by the source.

Assay: self-splicing fitness, log relative to wild type (ln ratio); higher = more splicing; Tetrahymena group I intron in knt gene, E. coli kanamycin selection, DiMSum; sequences stand for … in CUCUCU…GGAGGGAAAAGUUAUCAGGCAUGCACCUGGUAGCUAGUCUUUAAACCAAUAGAUUGCAUCGGUUUAAAAGGCAAGACCGUCAAAUUGCGGGAAAGGGGUCAACAGCCGUUCAGUACCAAGUCUCAGGGGAAACUUUGAGAUGGCCUUGCAAAGGGUAUGGUAAUAAGCUGACGGACAUGGUCCUAACCACGCAGCCAAGUCCUAAGUCAACAGAUCUUCUGUUGAUAUGGAUGCAGUUCACAGACUAAAUGUCGGUCGGGGAAGAUGUAUUCUUCUCAUAAGAUAUAGUCGGACCUCUCCUUAAUGGGAGCUAGCGGAUGAAGUGAUGCAACACUGGAGCCGCUGGGAACUAAUUUGUAUGCGAAAGUAUAUUGAUUAGUUUUGGAGUACUCGUGGUCG
Summary of the method: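 Fitness was computed with DiMSum as the error-weighted combination of replicate fold changes, kanamycin versus none, each normalised to wild type. The library randomised all eight intron nucleotides of the P1ex region, with the intron placed in the knt kanamycin-resistance gene on pET-22b(+) in E. coli BL21(DE3). Six replicate transformations were grown overnight at 37°C or 30°C on LB agar with or without 25 μg/mL kanamycin, plus 100 μg/mL carbenicillin, 50 μM IPTG and 0.2% rhamnose. Pooled colonies were amplicon-sequenced on an Illumina HiSeq 2500.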

Sequence	self-splicing fitness (ln) (30 °C)	self-splicing fitness (ln) (37 °C)
CGGAAGCAAUAUUACGAUCC	-3.21 ± 0.37	-1.42 ± 0.23
AAAGAGCAAUAUUACGUUGU	-3.11 ± 0.13	-2.51 ± 0.2
AUUAAGCAAUAUUACGCGCA	-0.661 ± 0.13	0.376 ± 0.16
GACUAGCAAUAUUACGAGAA	-1.29 ± 0.27	-1.53 ± 0.17
GAGUAGCAAUAUUACGAUGG	-2.33 ± 0.3	-0.76 ± 0.28
CGCUAGCAAUAUUACGUGCU	-1.82 ± 0.16	-1.63 ± 0.18
UCUCAGCAAUAUUACGUCUA	-2.95 ± 0.28	-1.38 ± 0.15
UACCAGCAAUAUUACGGUUC	-3.88 ± 0.18	-1.38 ± 0.14
ACUAAGCAAUAUUACGGAGC	-2.87 ± 0.17	-0.628 ± 0.14
GAAUAGCAAUAUUACGUAAC	-0.941 ± 0.11	-1.63 ± 0.12
CAUCAGCAAUAUUACGGGUG	-3.28 ± 0.14	-2.71 ± 0.2
AACCAGCAAUAUUACGGGGC	-3.59 ± 0.16	-2.64 ± 0.16
GAUGAGCAAUAUUACGAGCA	-2.59 ± 0.37	–
GUUGAGCAAUAUUACGCGAA	-3.43 ± 0.46	-1.9 ± 0.43
UUCCAGCAAUAUUACGGUGU	-1.19 ± 0.092	-1.1 ± 0.13
UCAUAGCAAUAUUACGACCU	-2.73 ± 0.39	-0.81 ± 0.26
AUUGAGCAAUAUUACGCGAG	-1.83 ± 0.13	-0.958 ± 0.14
GUAUAGCAAUAUUACGCCCG	-1.63 ± 0.17	-1.37 ± 0.23
CGUUAGCAAUAUUACGUCAU	-2.58 ± 0.21	-2.85 ± 0.3
GGAGAGCAAUAUUACGAUCG	-1.88 ± 0.14	-0.426 ± 0.16
GGGCAGCAAUAUUACGAUUG	-3.83 ± 0.4	-2.84 ± 0.27

Sequence	self-splicing fitness (ln) (30 °C)	self-splicing fitness (ln) (37 °C)
UUCGAGCAAUAUUACGGAAU	-3.13 ± 0.18	-2.87 ± 0.27
CAUAAGCAAUAUUACGGGCC	–	-1.25 ± 0.36
AACAAGCAAUAUUACGGGUU	-2.34 ± 0.11	-2.91 ± 0.16
AGCGAGCAAUAUUACGGCCA	-1.8 ± 0.099	-1.27 ± 0.078
GUGCAGCAAUAUUACGUCCC	-0.912 ± 0.35	-0.124 ± 0.26
AGGAAGCAAUAUUACGUAUA	-1.79 ± 0.17	-2.16 ± 0.24
CAAUAGCAAUAUUACGUGCU	–	-2.65 ± 0.24
CAGAAGCAAUAUUACGGUUA	-2.25 ± 0.13	-1.72 ± 0.12
CUCAAGCAAUAUUACGGAUC	-3.98 ± 0.43	-2.19 ± 0.27
UAGUAGCAAUAUUACGAACA	–	-0.405 ± 0.42
ACACAGCAAUAUUACGGAUC	-2.94 ± 0.12	-2.1 ± 0.15
GAAAAGCAAUAUUACGUUCC	-3.72 ± 0.26	-2.95 ± 0.24
UGGUAGCAAUAUUACGUAGA	-2.54 ± 0.17	-1.16 ± 0.14
UAUAAGCAAUAUUACGACCG	-0.137 ± 0.12	-0.1 ± 0.16
AUCGAGCAAUAUUACGGGAU	-2.82 ± 0.15	-1.78 ± 0.19
UAUAAGCAAUAUUACGCAUC	-3.74 ± 0.2	-2.38 ± 0.17
AACCAGCAAUAUUACGAAUA	-2.32 ± 0.13	-1.71 ± 0.097
CACAAGCAAUAUUACGAAUG	-1.79 ± 0.074	-1.2 ± 0.073
GGCAAGCAAUAUUACGAUCA	-0.849 ± 0.12	-0.349 ± 0.098
GACGAGCAAUAUUACGAACC	-3.09 ± 0.18	-0.495 ± 0.13
UGCAAGCAAUAUUACGCAAU	-3.55 ± 0.4	-2.06 ± 0.32

Sequence	self-splicing fitness (ln) (30 °C)	self-splicing fitness (ln) (37 °C)
GAUCAGCAAUAUUACGAUGC	-0.684 ± 0.12	0.0112 ± 0.12
CGGUAGCAAUAUUACGGAUC	-4.27 ± 0.33	-1.68 ± 0.23
CUGUAGCAAUAUUACGAGAU	-3.86 ± 0.16	-2.21 ± 0.15
GUCCAGCAAUAUUACGCGUG	-1.04 ± 0.063	-0.469 ± 0.068
AUUUAGCAAUAUUACGCAGC	-2.71 ± 0.35	-1.68 ± 0.43
CCUGAGCAAUAUUACGUGCU	-3.25 ± 0.19	-2.24 ± 0.2
GCGAAGCAAUAUUACGCAUC	-4.03 ± 0.44	-1.78 ± 0.23
CAGUAGCAAUAUUACGGCUU	-1.58 ± 0.16	-1.01 ± 0.14
ACGGAGCAAUAUUACGUCCA	-3.19 ± 0.17	-0.993 ± 0.15
AUGGAGCAAUAUUACGCGGG	-2.84 ± 0.45	–
GCAAAGCAAUAUUACGGGAA	-2.43 ± 0.1	-0.474 ± 0.081
AAGGAGCAAUAUUACGAAAA	-2.9 ± 0.39	-1.84 ± 0.35
GGCGAGCAAUAUUACGGGAC	-2.22 ± 0.2	-1.1 ± 0.27
GUCCAGCAAUAUUACGAACC	-1.97 ± 0.093	-0.224 ± 0.11
UAUCAGCAAUAUUACGGUAA	-0.552 ± 0.13	-0.308 ± 0.11
AGUAAGCAAUAUUACGUAAU	-3.15 ± 0.16	-2.2 ± 0.17
CAGGAGCAAUAUUACGUGUC	-3.59 ± 0.21	-3.03 ± 0.18
GUGCAGCAAUAUUACGCCUA	-1.29 ± 0.24	0.608 ± 0.25
CUUGAGCAAUAUUACGUUAG	-3.13 ± 0.2	-1.11 ± 0.15
CCUAAGCAAUAUUACGUGCC	-2.84 ± 0.3	–
